Data as given in the supplement of paper PMC9233669.
Fewer inactive variants are shown than the library holds.

Assays:
[1] = system: biotinyl-Phe-oxazolone; test: self-aminoacylation, catalytic enhancement (BFO) (fold over background); higher = more active; k-Seq, kA / k0A0; sequences stand for … in GGGAAUGGAUCCACAUCUACGAAUUC…UUCACUGCAGACUUGACGAAGCUG
How it was run: (§1)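 Each biotinyl-aminoacyl-oxazolone, at 2–1250 μM, was incubated with mutagenized RNA pools (0.43 μM) carrying a 21-nt variable region. The 50 μL reactions contained HEPES/NaCl/KCl/MgCl2/CaCl2 buffer with 5% acetonitrile at pH 6.9–7.0 and ran for 90 minutes at room temperature. After streptavidin capture, RNA was measured by qPCR in triplicate and by Illumina sequencing, and catalytic enhancement was calculated as median kA over the uncatalyzed rate from a pseudo-first-order fit of per-sequence fraction reacted.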

[2] = system: biotinyl-Ile-oxazolone; test: self-aminoacylation, catalytic enhancement (BIO) (fold over background); higher = more active; k-Seq, kA / k0A0; sequences stand for … in GGGAAUGGAUCCACAUCUACGAAUUC…UUCACUGCAGACUUGACGAAGCUG
How it was run: as §1

[3] = system: biotinyl-Met-oxazolone; test: self-aminoacylation, catalytic enhancement (BMO) (fold over background); higher = more active; k-Seq, kA / k0A0; sequences stand for … in GGGAAUGGAUCCACAUCUACGAAUUC…UUCACUGCAGACUUGACGAAGCUG
How it was run: as §1

[4] = system: biotinyl-Val-oxazolone; test: self-aminoacylation, catalytic enhancement (BVO) (fold over background); higher = more active; k-Seq, kA / k0A0; sequences stand for … in GGGAAUGGAUCCACAUCUACGAAUUC…UUCACUGCAGACUUGACGAAGCUG
How it was run: as §1

[5] = system: biotinyl-Leu-oxazolone; test: self-aminoacylation, catalytic enhancement (BLO) (fold over background); higher = more active; k-Seq, kA / k0A0; sequences stand for … in GGGAAUGGAUCCACAUCUACGAAUUC…UUCACUGCAGACUUGACGAAGCUG
How it was run: as §1

[6] = system: biotinyl-Trp-oxazolone; test: self-aminoacylation, catalytic enhancement (BWO) (fold over background); higher = more active; k-Seq, kA / k0A0; sequences stand for … in GGGAAUGGAUCCACAUCUACGAAUUC…UUCACUGCAGACUUGACGAAGCUG
How it was run: as §1

Row | Sequence | self-aminoacylation [1] | self-aminoacylation [2] | self-aminoacylation [3] | self-aminoacylation [4] | self-aminoacylation [5] | self-aminoacylation [6]
1 | AUUCAACUAAGUCAUCGGGUG [Fam2.2 aminoacylation ribozyme variant] | 69.4 | 4.92 | 7.12 | 4.13 | 10.7 | 7.24
2 | AUUCAACUAGGUCAUAGGGUG [Fam2.2 aminoacylation ribozyme variant] | 9.13 | 1.49 | 2 | 1.28 | 2.58 | 1.47
3 | AUUCAACUAGGUCUUCGGGUG [Fam2.2 aminoacylation ribozyme variant] | 29.8 | 2.93 | 4.21 | 3.01 | 4.84 | 4.34
4 | AUUCAACUAGGUUAUCGGGUG [Fam2.2 aminoacylation ribozyme variant] | 22.1 | 2.21 | 3.29 | 2.45 | 3.61 | 3.46
5 | AUUCAACUAGUUCAUCGGGUG [Fam2.2 aminoacylation ribozyme variant] | 16.8 | 1.95 | 2.82 | 1.95 | 2.77 | 2.29
6 | AUUCACAUAGAUCAUCGGGUG [Fam2.2 aminoacylation ribozyme variant] | 35.2 | 2.93 | 4.43 | 2.8 | 5.04 | 3.84
7 | AUUCACAUAGCUCAUCGGGUG [Fam2.2 aminoacylation ribozyme variant] | 12.6 | 2 | 1.91 | 2.38 | 2.36 | 2.34
8 | AUUCACAUAGGUCAUCAGGUG [Fam2.2 aminoacylation ribozyme variant] | 1.62 | 1.2 | 1.41 | 1.4 | 1.63 | 1.85
9 | AUUCACAUAGGUCAUCGGGUA [Fam2.2 aminoacylation ribozyme variant] | 22.7 | 2.24 | 2.86 | 2.57 | 2.54 | 3.56
10 | AUUCACAUAGGUCAUCGGGUG [Fam2.2 aminoacylation ribozyme variant] | 65.2 | 5.09 | 8.47 | 5.09 | 10.6 | 7.83
11 | AUUCACAUAGGUCAUGGGGUG [Fam2.2 aminoacylation ribozyme variant] | 46.7 | 4.56 | 7.28 | 4.12 | 9.35 | 6.97
12 | AUUCACAUAUGUCAUCGGGUG [Fam2.2 aminoacylation ribozyme variant] | 52.5 | 4.44 | 7.09 | 4.21 | 9.08 | 7.3
13 | AUUCACCAAGGCCAUCGGGUG [Fam2.2 aminoacylation ribozyme variant] | 30.1 | 3.32 | 5.09 | 3.49 | 5.34 | 4.57
14 | AUUCACCAAGGUCAACGGGUG [Fam2.2 aminoacylation ribozyme variant] | 42.5 | 3.52 | 6.3 | 3.1 | 8.07 | 6.16
15 | AUUCACCAAGGUCAUCGGGUU [Fam2.2 aminoacylation ribozyme variant] | 17.2 | 2.42 | 2.43 | 2.59 | 2.21 | 4.16
16 | AUUCACCAAGGUCAUCGGUUG [Fam2.2 aminoacylation ribozyme variant] | 9.05 | 1.42 | 1.55 | 1.39 | 1.72 | 1.69
17 | AUUCACCAAGGUCAUUGGGUG [Fam2.2 aminoacylation ribozyme variant] | 49.8 | 4.07 | 6.78 | 4.54 | 9.21 | 6.53
18 | AUUCACCAAGGUUAUCGGGUG [Fam2.2 aminoacylation ribozyme variant] | 63.7 | 4.45 | 7.8 | 4.4 | 8.94 | 6.57
19 | AUUCACCAAUGUCAUCGGGUG [Fam2.2 aminoacylation ribozyme variant] | 75.3 | 5.59 | 9.72 | 5.57 | 12.6 | 8.56
20 | AUUCACCACGGUCAUCGGGUG [Fam2.2 aminoacylation ribozyme variant] | 68.7 | 5.71 | 9.37 | 6.13 | 12.3 | 10
21 | AUUCACCCAGGGCAUCGGGUG [Fam2.2 aminoacylation ribozyme variant] | 20 | 3.62 | 3.74 | 3.72 | 6.26 | 3.92
22 | AUUCACCCAGGUAAUCGGGUG [Fam2.2 aminoacylation ribozyme variant] | 18.6 | 2.26 | 3.1 | 2.14 | 3.88 | 2.46
23 | AUUCACCCAGGUCAUCGGAUG [Fam2.2 aminoacylation ribozyme variant] | 0.458 | 0.889 | 0.669 | 0.988 | 0.895 | 1.07
24 | AUUCACCCAGGUCAUCGGCUG [Fam2.2 aminoacylation ribozyme variant] | 6.8 | 1.99 | 1.62 | 2 | 1.85 | 1.41
25 | AUUCACCCAGGUCAUCUGGUG [Fam2.2 aminoacylation ribozyme variant] | 28.2 | 2.35 | 3.99 | 2.25 | 4.84 | 3
26 | AUUCACCCAGGUCUUCGGGUG [Fam2.2 aminoacylation ribozyme variant] | 35 | 3.28 | 5.3 | 3.84 | 5.78 | 5.13
